Experimental data: patent US20180362616

Biological target: T1, APPI-WT (SEQ ID NO: 25), soluble, expressed in Pichia pastoris
T1 chain: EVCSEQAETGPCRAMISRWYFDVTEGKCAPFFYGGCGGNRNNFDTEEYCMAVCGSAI

B1: human mesotrypsin (catalytically active) (protein)
chain: IVGGYTCEENSLPYQVSLNSGSHFCGGSLISEQWVVSAAHCYKTRIQVRLGEHNIKVLEGNEQFINAAKIIRHPKYNRDTLDNDIMLIKLSSPAVINARVSTISLPTTPPAAGTECLISGWGNTLSFGADYPDELKCLDAPVLTQAECKASYPGKITNSMFCVGFLEGGKDSCQRDSGGPVVCNGQLQGVVSWGHGCAWKNRPGVYTKVYNYVDWIKDTIAANS
B1 was tested, and the Kcat (s^-1) of hydrolysis of APPI by mesotrypsin (HPLC time course) was 0.0356 s⁻¹.
